For one series, the system named is NHL patients. The settings on record: cited from earlier work.
The subject of the next series is B cells in PBMCs. As to the kind of experiment: Relative B cell count after overnight treatment of PBMCs. It counts as cell-based, human. Here is the method:
(§1) Peripheral blood mononuclear cells (PBMCs) obtained from healthy donors were incubated overnight (16-24 h) with 10 μg/mL of either epratuzumab or an isotype control mAb (hMN-14) and the relative levels of various antigens on the surface of the B cells were analyzed by flow cytometry. PBMCs from heparinized whole blood of normal donors were isolated by density gradient centrifugation on UNI-SEP tubes (Novamed Ltd, Israel). PBMCs were reconstituted in RPMI media supplemented with 10% heat inactivated fetal bovine serum and plated at a cell density of 1.5×10^6/mL in non-tissue culture treated 48-well plates. […] Stained cells were analyzed by flow cytometry on a FACSCALIBUR® (BD Biosciences) using Flowjo (V7.6.5) software. Initially, the lymphocyte population was gated by side vs. forward scattering, and B cells were further gated from this population with the CD19 signal. The mean fluorescence intensity (MFI), obtained with fluorochrome-conjugated antibodies to various cell surface antigens, on the gated B cells was calculated following treatment with epratuzumab, hMN-14 or without antibody. PBMCs from 16 healthy donors were assessed in various experiments.

In series [1] the test system is B cells gated from PBMCs of healthy donors. In words: Trogocytosis: surface antigen levels on B cells after overnight treatment of PBMCs, flow cytometry. The class given is cell-based, human. Here is the method:
as §1

Another series deals with subjects. The settings on record: reported, Morchhauser et al., 2009, Goldenberg et al., Robak & Robak, 2011; cited from earlier work.
The nature of series [2]: Antibody-dependent cell-mediated cytotoxicity in vitro. The class given is cell-based.
A further series deals with circulating B cells. The settings on record: may be overestimated due to use of CD19+ cells to measure B cells; cited from earlier work.
For a further series, the target named is T1, CD22 (Homo sapiens, UniProt P20273).
T1 construct: endogenous in cells; host or cells: Daudi (Burkitt lymphoma) cells
As to the kind of experiment: Binding affinity for CD22+ Daudi cells determined by ELISA (FIG. 2). The settings on record: CD22+ Daudi cells, FIG. 2. As to the method:
FIG. 2. Comparative binding affinity for CD22+ Daudi cells of hLL2 IgG, hRFB4 IgG, chimeric RFB4 conjugated to AD2 peptide, and hMN-14 IgG, as determined by ELISA. The binding affinity of hRFB4 as determined for Daudi cells is about 10-fold higher than that of hLL2 and about 30% higher than the chimeric RFB4.
The hRFB4 antibody was prepared as described above, resulting in a humanized anti-CD22 antibody with variable region sequences as shown in FIG. 1A and FIG. 1B (SEQ ID NO:7 and SEQ ID NO:8). After expression, the binding affinity or CD22+ Daudi cells was compared to that of the hLL2 antibody, comprising the same FR and constant region sequences but different CDR sequences, and to the chimeric RFB4 antibody, comprising the same CDR sequences but different FR and constant region sequences.

Series [3] has as its system patients with SLE who have failed at least one previous therapy. As to the kind of experiment: Combination therapy of SLE with hRFB4 and hLL2. The class given is in vivo, human. The settings on record: single antibody alone, same dosage and schedule. As to the method:
Patients with SLE who have failed at least one previous therapy receive combination therapy with 160 mg each of hRFB4 and hLL2 (epratuzumab), administered s.c. in 2 injections weekly for four weeks. Control groups receive hRFB4 alone, hLL2 alone or irrelevant antibody (hMN-14) at the same dosage and schedule. […] All serum samples evaluated for anti-human antibodies (HAHA) are negative.

Series [4] concerns NHL Burkitt cell lines (Daudi, Raji, and Ramos). In words: Surface markers on NHL Burkitt cell lines, isolated or spiked into normal PBMCs. It counts as cell-based, human. From the text: This mechanism of action may explain the limited effectiveness of high doses of epratuzumab compared to lower doses in patients with SLE.
For another series, the system named is Daudi cells. As to the kind of experiment: Dose-response of trogocytosis of CD22 and CD19 from Daudi cells (FIG. 6A, 6B). The class given is cell-based, human.
Series [5] can be described thus: Complement-dependent cytotoxicity in vitro. The class given is cell-based.
The mark [6] stands for this setting: 4 doses of 80, 160 or 320 mg s.c. every two weeks.
Setting [7] is: 10 μg/mL, overnight, PBMCs of healthy donors.

The values that follow come from patent US9701748B2, “Humanized anti-CD22 antibody” (IMMUNOMEDICS, INC., priority 2014, dated 2017).

Some results are limits rather than exact numbers.

For “veltuzumab: humanized IgG1 antibody against CD20”, in the series with NHL patients (80 mg), the “objective response in the 80 mg dosage group” value is 67% and the “patients showing a complete response in the 80 mg dosage group” value was “one of three”. Moreover, in the series on NHL patients (setting [6]), the “CR/CRu (complete response) rate” value is given as 24% and the “objective response rate (CR+CRu+PR)” value is given as 47%. Besides, in the series on NHL patients (60 weeks), the “objective responses continued for 60 weeks” value is on record as “Four out of eight”. The “HAHA in serum samples” value with NHL patients (all serum samples evaluated) is given as “negative”. Moreover, the safety entry with NHL patients (s.c.) was “Only occasional, mild to moderate and transient injection reactions”. Also, the “reduction of the B cell count” value in the series on B cells in PBMCs (10 μg/mL, overnight, PBMCs of healthy donors, FIG. 9) amounted to 40%. Further, in series [1] (PBMCs of healthy donors, overnight, FIG. 9), the “reduction of CD19, CD21 and CD79b compared with epratuzumab” value is reported as “greater extent than epratuzumab”. Moreover, in the series on subjects, the “immunogenicity compared with rituximab” value is listed as “less immunogenic in subjects than rituximab”.

B1: hLL2: humanized anti-CD22 antibody hLL2 (epratuzumab) (antibody, V domains shown)
VH: QVQLQQSGAEVKKPGSSVKVSCKASGYTFTSYWLHWVRQAPGQGLEWIGYIYPRNDYTEYNQNFKDKATITADESTNTAYMELSSLRSEDTAFYFCARRDITTFYWGQGTTVTVSS
VL: DIQLTQSPSSLSASVGDRVTMSCKSSQSVLYSANHKNYLAWYQQKPGKAPKLLIYWASTRESGVPSRFSGSGSGTDFTFTISSLQPEDIATYYCHQYLSSWTFGGGTKVQIKR
Regarding B1, the antibody-dependent cell-mediated cytotoxicity entry in series [2] is “modest, but significant”. In addition, the “depletion of circulating B cells in patients, on average” value in the series on circulating B cells is listed as 35%. The B cell depletion result in the series on B cells in PBMCs (either at 10 μg/mL or 1 mg/mL, ex vivo) is listed as “did not cause significant B cell depletion”. The molecule also showed a Kd with CD22 of 2 nM. Besides, in series [1] (setting [7]), the “CD19 level on B cells, % of untreated or control mAb” value came out at 50%; the “CD20 level on B cells, % of untreated or control mAb” value amounted to 82%; the “CD21 level on B cells, % of untreated or control mAb” value was found to be 52%; the “CD22 level on B cells, % of untreated or control mAb” value turned out to be 10%. Besides, in series [1] (setting [7]), the “CD62L level on B cells, % of untreated or control mAb” value worked out at 73%; the “CD79b level on B cells, % of untreated or control mAb” value is given as 70%; the “change of CD27 (on CD27+ B cells), CD40, CD44, CD45, β7 integrin and LFA-1 (CD11a and CD18)” value is on record as less than 10 % change. In series [1] (CD19, PBMCs from 3 healthy donors), the “responsiveness of CD27− naive B cells compared to CD27+ memory B cells” value is recorded as “more responsive”. In series [1] (PBMCs of healthy donors), the “time course of the reduction of surface antigens” value was “essentially complete within a few hours”. For the same molecule, in series [3], the objective responses result is “Objective responses are observed”. Besides, in [4] (PBMCs from normal donors or lupus patients, and NHL lines spiked into normal PBMCs), the “reduction of CD22, CD19, CD21, CD20 and CD79b on the surface of B cells” value was “substantial reduction”. Also, the “surface markers decreased in isolated NHL cells” value in [4] (isolated NHL cells, no effector cells) is given as “only CD22, but not other surface markers, was appreciably decreased”. In addition, in the series on Daudi cells (CD19 from Daudi cell, FIG. 6B), the “minimal concentration to induce the maximal level of trogocytosis of CD19” value amounted to 10 ng/mL. The “minimal concentration to induce the maximal level of trogocytosis of CD22” value with Daudi cells (CD22 from Daudi cell, FIG. 6A) came to 10 ng/mL. The “concentration inducing the maximal level of trogocytosis of CD19 and CD22” value in the series with Daudi cells (dose-response curve, FIG. 6A and 6B) came out at 10 ng/mL. Also, the complement-dependent cytotoxicity entry in series [5] is “negligible”.
